Data reported in patent US20240402174A1 (Takeda / Millennium, published 2024).

T1: GII.17/2015 VLP (norovirus Hu/GII.17/HKG/2015/CUHK-NS-513)
T1 construct: also called Hu/GII.17/HKG/2015/CUHK-NS-513
T1 chain: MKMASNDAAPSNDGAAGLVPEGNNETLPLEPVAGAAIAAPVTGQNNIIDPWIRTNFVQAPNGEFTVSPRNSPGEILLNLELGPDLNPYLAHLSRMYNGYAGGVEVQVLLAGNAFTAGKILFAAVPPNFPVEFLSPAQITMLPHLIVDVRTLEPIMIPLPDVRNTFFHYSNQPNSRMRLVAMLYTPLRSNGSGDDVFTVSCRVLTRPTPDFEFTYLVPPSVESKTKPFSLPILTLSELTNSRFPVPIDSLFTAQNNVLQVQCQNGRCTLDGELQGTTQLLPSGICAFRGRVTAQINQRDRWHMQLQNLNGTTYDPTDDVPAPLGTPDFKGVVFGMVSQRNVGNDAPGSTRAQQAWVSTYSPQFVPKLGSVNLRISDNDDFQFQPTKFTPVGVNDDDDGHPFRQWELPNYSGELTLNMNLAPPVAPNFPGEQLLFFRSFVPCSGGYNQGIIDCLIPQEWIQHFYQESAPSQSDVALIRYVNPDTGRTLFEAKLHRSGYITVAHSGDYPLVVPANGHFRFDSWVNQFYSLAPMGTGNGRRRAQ

T2: GII.4/New Orleans VLP (norovirus Hu/GII.4/New …, UniProt P54635 1-539)
T2 construct: also called Hu/GII.4/New Orleans1805/2009/USA
T2 chain: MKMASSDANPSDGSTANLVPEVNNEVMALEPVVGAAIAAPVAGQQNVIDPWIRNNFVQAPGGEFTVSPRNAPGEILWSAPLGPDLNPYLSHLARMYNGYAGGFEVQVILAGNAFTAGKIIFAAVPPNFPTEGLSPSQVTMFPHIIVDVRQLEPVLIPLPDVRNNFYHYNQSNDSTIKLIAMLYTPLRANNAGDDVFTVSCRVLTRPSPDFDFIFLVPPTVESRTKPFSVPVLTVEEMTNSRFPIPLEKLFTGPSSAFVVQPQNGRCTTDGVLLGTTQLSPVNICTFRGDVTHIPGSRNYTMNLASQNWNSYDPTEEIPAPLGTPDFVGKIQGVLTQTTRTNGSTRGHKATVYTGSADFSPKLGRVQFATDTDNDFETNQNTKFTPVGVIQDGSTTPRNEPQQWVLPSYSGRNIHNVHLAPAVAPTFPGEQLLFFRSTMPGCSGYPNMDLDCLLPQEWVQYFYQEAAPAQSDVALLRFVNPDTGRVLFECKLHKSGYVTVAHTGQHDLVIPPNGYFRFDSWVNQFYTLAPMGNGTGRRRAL

T3: GII.7 VLP (norovirus Hu/GII.7/NSW088L/2007/AUS)
T3 construct: also called Hu/GII.7/NSW088L/2007/AUS
T3 chain: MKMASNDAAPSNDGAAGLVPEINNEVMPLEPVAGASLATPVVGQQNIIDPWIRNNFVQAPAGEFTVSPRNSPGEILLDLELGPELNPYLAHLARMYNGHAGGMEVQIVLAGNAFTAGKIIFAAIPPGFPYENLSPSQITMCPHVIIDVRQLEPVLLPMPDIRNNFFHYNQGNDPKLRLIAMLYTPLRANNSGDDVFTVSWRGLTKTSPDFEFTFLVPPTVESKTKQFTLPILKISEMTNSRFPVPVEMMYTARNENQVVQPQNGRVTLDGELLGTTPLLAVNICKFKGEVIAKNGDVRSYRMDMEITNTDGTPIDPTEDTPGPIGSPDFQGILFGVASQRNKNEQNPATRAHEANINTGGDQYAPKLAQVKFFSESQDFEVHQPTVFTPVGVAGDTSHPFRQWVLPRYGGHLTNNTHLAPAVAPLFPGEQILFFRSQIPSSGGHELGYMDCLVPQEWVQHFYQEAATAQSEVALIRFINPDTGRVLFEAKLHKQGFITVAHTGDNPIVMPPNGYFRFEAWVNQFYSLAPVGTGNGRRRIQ

T4: GII.4/Sydney VLP (norovirus …, UniProt P54635 1-538)
T4 construct: also called Hu/GII.4/Sydney/NSW0514/2012/AU
T4 chain: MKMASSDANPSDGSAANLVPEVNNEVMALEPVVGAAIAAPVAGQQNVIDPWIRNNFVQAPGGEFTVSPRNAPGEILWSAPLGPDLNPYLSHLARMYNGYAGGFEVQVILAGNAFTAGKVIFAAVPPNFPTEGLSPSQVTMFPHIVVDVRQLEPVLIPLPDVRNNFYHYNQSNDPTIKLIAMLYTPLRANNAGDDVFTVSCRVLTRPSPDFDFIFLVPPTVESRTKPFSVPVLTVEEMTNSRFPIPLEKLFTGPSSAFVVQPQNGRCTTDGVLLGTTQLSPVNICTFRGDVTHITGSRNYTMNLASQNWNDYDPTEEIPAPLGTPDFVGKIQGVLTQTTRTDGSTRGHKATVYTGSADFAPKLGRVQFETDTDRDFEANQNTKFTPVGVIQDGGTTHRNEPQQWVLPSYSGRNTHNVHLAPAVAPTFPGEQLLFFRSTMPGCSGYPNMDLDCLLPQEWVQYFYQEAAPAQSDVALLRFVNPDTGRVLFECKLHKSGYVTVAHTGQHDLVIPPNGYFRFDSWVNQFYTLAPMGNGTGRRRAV

T5: GII.3 VLP (norovirus Hu/GII.3/NIHIC8.1/2011/USA)
T5 construct: also called Hu/GII.3/NIHIC8.1/2011/USA
T5 chain: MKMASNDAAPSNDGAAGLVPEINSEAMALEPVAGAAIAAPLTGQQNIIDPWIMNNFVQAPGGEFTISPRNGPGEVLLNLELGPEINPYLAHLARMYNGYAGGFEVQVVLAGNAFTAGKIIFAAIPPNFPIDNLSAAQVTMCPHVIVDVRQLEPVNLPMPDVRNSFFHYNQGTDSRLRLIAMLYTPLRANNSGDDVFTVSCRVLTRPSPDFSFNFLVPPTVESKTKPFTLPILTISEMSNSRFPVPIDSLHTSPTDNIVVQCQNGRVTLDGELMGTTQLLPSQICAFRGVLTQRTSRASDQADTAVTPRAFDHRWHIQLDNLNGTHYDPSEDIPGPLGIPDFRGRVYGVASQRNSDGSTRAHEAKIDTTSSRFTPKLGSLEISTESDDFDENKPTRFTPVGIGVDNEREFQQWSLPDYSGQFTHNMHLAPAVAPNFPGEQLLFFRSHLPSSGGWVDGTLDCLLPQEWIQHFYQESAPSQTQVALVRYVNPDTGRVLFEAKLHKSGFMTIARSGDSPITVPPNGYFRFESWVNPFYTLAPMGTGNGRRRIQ

B1: human mAb 1431 (antibody, V domains shown)
VH: QVQLVQSGGGLVQPGGSLRLSCAASGFAFSNHGMHWVRQAPGKGLEWLSYISGSTGAIHYANSVKGRFTISRDNARNSLDLQMNSLGDEDTAVYYCARDGPRPDGTGYAGPSNDYWGQGTLVSVSS
VL: EIVLTQSPASLSLSPGERATLSCKASRSISIYLAWYQQKPGQAPRLLIYDASYRAIGIPARFSGSGSGTDFTLTISNLEPEDFAVYYCQHRSSWPALTFGGGTKVEI
notes: also called A1431
B2: human mAb 1227 (antibody, V domains shown)
VH: QVQLVQSGGGMVQPGGSLSLSCAASGFTLSNYAMTWVRQAPGKGLEWVSSIGGSGGTTYYADSVKGRFTISRDSSMNTLYLQMSNLRAGDTAVYYCAKDKTRTLRLGYSGMDVWGQGTTVTVSS
VL: DIRLTQSPSSLSASVGDRVTITCRASQSISSYLNWYQQKPGKAPDLLIYGASSLQSGVPSRFSGSGSGTDFTLTISSLQPEDFGNYYCQQSFSTPRTFGQGTKVEL
notes: also called A1227

Experiments:
Assay in all cases: multiplex microsphere immunoassay
GII.17/2015 VLP = biological target: T1, GII.17/2015 VLP
GII.4/New Orleans VLP = biological target: T2, GII.4/New Orleans VLP
GII.7 VLP = biological target: T3, GII.7 VLP
GII.4/Sydney VLP = biological target: T4, GII.4/Sydney VLP
GII.3 VLP = biological target: T5, GII.3 VLP

Binder	binding result (GII.17/2015 VLP)	EC50 (GII.4/New Orleans VLP) [µg/mL]	binding result (GII.7 VLP)	EC50 (GII.4/Sydney VLP) [µg/mL]	binding result (GII.3 VLP)	EC50 (GII.17/2015 VLP) [µg/mL]	EC50 (GII.7 VLP) [µg/mL]	EC50 (GII.3 VLP) [µg/mL]
B1	no binding	0.018	no binding	0.026	no binding			
B2		0.007		0.012		0.012	0.009	0.006
